The data set has as its target Taq DNA polymerase (UniProt P19821 P19821:1-832). The data set can be described thus: EMSA; band of key/amplicon hybrid shifted on adding Taq; 4 mM MgCl2, 20 mM Tris-HCl pH 8.3, 20 mM KCl, room temp; text does not name the individual keys run. Conditions: tags: New England Biolabs (band shift); Maxima Hot Start Taq, Thermo Scientific, in PAD assay. The protocol: Electrophoretic Band Shift Experiment Solution containing 100 or 200 nM detection key, PCR products and 12.5 U Taq DNA polymerase (New England Biolabs) in 20 mM Tris-HCl (pH 8.3), 20 mM KCl, 5 mM (NH4)2SO4, and 4 mM MgCl2 was incubated at room temperature for 20 min. The solution was mixed with 6× loading buffer and subjected to electrophoresis on a 20% polyacrylamide gel (Life technologies). The analysis was carried out in 1× TBE (100 mM Tris, 90 mM Borate, 1 mM EDTA) at 150 V for 160 min at 4° C. After GelRed (Biotium) staining, gels were scanned using a UV transilluminator. DNA polymerase was neither fluorescent nor stained by the dye.
The sequence homology among genus types was kept <50% to minimize non-specific binding. When tested, the HAI keys assumed high specificity. […] Electrophoretic band-shift analysis confirmed that the detection keys, in the presence of complementary target amplicon, bound to DNA polymerase and inhibited its catalytic activity (see FIG. 24). […] This confirmed the binding between detection keys and DNA polymerase.

Chain of Taq DNA polymerase (P19821 whole entry, one chain of several): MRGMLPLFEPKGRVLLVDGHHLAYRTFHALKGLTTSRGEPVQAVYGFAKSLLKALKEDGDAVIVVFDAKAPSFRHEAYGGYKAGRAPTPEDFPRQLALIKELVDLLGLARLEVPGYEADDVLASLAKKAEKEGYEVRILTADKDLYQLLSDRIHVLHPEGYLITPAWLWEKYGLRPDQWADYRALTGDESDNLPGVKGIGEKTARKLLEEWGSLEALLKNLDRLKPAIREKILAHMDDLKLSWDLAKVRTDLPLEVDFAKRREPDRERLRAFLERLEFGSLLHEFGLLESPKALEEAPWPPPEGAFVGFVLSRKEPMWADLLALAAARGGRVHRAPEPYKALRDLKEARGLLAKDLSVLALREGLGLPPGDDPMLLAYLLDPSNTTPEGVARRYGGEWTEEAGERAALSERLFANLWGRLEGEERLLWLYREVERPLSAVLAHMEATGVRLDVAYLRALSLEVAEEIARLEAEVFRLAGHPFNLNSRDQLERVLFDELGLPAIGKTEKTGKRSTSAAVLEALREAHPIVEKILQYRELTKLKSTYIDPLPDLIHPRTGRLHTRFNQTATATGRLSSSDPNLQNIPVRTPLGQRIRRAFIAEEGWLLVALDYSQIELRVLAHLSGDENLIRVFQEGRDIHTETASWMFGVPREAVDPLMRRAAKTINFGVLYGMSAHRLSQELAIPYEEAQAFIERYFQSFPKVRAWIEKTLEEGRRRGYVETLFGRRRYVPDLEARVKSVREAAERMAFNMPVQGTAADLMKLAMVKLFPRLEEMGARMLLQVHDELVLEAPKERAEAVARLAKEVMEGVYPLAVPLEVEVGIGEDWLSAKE

B1: Escherichia detection key / Escherichia amplicon (mixed)
DNA 1: CAATGTACAGTATTGTGGAGGAAGGGAGTAAAGTTAAT
DNA 2: TGCGGGTAACGTCAATGAGCAAAGGTATTAACTTTACTCCCTTCCTCCA
modifications: amplicon strand dU in place of dT in dUTP assay
As to B1, the binding result is given as “binds”.

(Values after US20200408687, “Polarization-Based Fluorescent Nucleic Acid Detection” (The General Hospital Corporation, published 2020).)
